The results in this text go back to US20220251236A1 (Boehringer Ingelheim, published 2022).

For experiment [1], the target named is T1, Human CD3 E+G HuFc-6xHis (human).
T1 construct: also called hu CD3εγ-Fc
Put plainly: SPR (ProteOn XPR36), HuCD3E_HuCD3G-Fc amine-coupled, bispecific as analyte, Example 4B. The method in brief: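 SPR kinetics with the bispecific constructs flowed as analyte over a directly amine-coupled (pH 4.5 acetate) human CD3εγ-Fc surface. Association runs 600 s and dissociation 1800 s, at 30 μl/min in PBS-T-EDTA.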

Experiment [2] addresses T2, EGF1+2.
T2 construct: also called Hu DLL3 EGF1+2 on HEK293 cells
T2 membrane-anchored DLL3 subdomain construct: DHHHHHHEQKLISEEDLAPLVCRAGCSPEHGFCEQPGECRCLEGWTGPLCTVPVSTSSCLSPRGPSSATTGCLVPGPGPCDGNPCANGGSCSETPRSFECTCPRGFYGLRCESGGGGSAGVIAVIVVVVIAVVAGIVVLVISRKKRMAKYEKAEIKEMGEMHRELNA
Put plainly: flow cytometry on HEK293 cells expressing the DLL3 subdomain construct, PE anti-human secondary, control: secondary antibody only. Summed up:
(§1)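 Binders tested on HEK293 cells displaying the DLL3 subdomain construct; bound molecules detected by flow cytometry using PE-conjugated anti-human secondary antibody. Negative control: cells with secondary antibody only.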
(Flow cytometry measures light scatter and fluorescence of single cells or particles in a stream.)

Experiment [3] concerns the target T3, EGF2+3.
T3 construct: also called Hu DLL3 EGF2+3 on HEK293 cells
T3 membrane-anchored DLL3 subdomain construct: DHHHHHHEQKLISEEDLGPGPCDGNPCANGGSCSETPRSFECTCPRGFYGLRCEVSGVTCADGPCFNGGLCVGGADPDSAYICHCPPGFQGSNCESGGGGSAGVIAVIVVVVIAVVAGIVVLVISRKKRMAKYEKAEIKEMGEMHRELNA
Described as above. The method in brief:
as §1

Experiment [4] deals with T4, EGF3+4.
T4 construct: also called Hu DLL3 EGF3+4 on HEK293 cells
T4 membrane-anchored DLL3 subdomain construct: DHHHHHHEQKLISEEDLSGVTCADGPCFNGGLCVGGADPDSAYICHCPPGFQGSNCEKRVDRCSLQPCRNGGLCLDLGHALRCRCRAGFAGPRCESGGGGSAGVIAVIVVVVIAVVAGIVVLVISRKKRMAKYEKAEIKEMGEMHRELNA
Described as above. The method in brief:
as §1

For experiment [5], the target named is T5, EGF4+5.
T5 construct: also called Hu DLL3 EGF4+5 on HEK293 cells
T5 membrane-anchored DLL3 subdomain construct: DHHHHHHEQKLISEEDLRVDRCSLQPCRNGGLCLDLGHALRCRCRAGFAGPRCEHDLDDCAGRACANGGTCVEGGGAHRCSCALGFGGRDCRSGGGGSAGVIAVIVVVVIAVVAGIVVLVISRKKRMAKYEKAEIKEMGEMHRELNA
The description is as above. Summed up:
as §1

Experiment [6] deals with T6, EGF5+6.
T6 construct: also called Hu DLL3 EGF5+6 on HEK293 cells
T6 membrane-anchored DLL3 subdomain construct: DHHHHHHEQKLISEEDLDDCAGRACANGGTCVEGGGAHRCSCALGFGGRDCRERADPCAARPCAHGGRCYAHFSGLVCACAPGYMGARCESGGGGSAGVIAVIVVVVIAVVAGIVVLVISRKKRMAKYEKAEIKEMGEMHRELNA
Described as above. The method in brief:
as §1

Experiment [7] has as its target T7, EGF6+MEMBRANE PROXIMAL PEPTIDE.
T7 construct: also called Hu DLL3 EGF6+membrane proximal peptide on HEK293 cells
T7 membrane-anchored DLL3 subdomain construct: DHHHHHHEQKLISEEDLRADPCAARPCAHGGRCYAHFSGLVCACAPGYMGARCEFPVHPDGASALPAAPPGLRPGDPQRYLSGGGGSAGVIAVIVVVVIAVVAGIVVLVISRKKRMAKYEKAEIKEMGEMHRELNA
The experiment in a line: flow cytometry on HEK293 cells expressing the DLL3 subdomain construct, 1.6 nM binder, PE anti-human secondary, control: secondary antibody only. Summed up:
as §1

T1 sequence (chain, as listed by the source limits assumed): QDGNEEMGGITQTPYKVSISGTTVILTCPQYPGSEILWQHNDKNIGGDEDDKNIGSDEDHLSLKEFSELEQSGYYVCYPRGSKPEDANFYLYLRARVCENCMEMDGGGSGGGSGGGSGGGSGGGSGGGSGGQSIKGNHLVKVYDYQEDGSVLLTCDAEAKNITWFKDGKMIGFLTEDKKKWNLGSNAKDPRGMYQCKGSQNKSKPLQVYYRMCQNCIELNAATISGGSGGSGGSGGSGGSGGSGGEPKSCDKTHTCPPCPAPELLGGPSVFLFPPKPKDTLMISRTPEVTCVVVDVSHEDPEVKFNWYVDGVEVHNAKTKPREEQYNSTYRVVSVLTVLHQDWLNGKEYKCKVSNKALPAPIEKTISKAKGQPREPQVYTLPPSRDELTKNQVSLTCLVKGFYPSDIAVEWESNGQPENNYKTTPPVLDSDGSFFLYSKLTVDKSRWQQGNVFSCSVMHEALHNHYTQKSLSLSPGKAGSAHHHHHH

B1: DLL3#3/CD3#2 (bispecific antibody, human IgG1, kappa, lambda, L234A L235A)
chain 1: DIQMTQSPSAMSASVGDRVTITCRASQGISNYLVWFQQKPGKAPKRLIYAVSSLYSGVPSRFSGSGSGTEFTLTISSLQPEDFATYYCLQHDSYPYTFGQGTKLEIKRTVAAPSVFIFPPSDEQLKSGTASVVCLLNNFYPREAKVQWKVDNALQSGNSQESVTEQDSKDSTYSLSSTLTLSKADYEKHKVYACEVTHQGLSSPVTKSFNRGECGGGGSEGKSSGSGSESKSTEGKSSGSGSESKSTGGGGSQVQLVQSGAEVKKPGASVKVSCKASGYTFTSYYVHWVRQAPGQGLEWMVIINPGGGTTSYAQKFLGRVTMTRDTSTNTVYMELKSLRSEDTAVYYCARGEAVTGNYFYYGMDVWGQGTTVTVSSASTKGPSVFPLAPSSKSTSGGTAALGCLVKDYFPEPVTVSWNSGALTSGVHTFPAVLQSSGLYSLSSVVTVPSSSLGTQTYICNVNHKPSNTKVDKRVEPKSCDKTHTCPPCPAPEAAGGPSVFLFPPKPKDTLMISRTPEVTCVVVDVSHEDPEVKFNWYVDGVEVHNAKTKPREEQYNSTYRVVSVLTVLHQDWLNGKEYKCKVSNKALPAPIEKTISKAKGQPREPQVYTLPPSREEMTKNQVSLWCLVKGFYPSDIAVEWESNGQPENNYKTTPPVLDSDGSFFLYSKLTVDKSRWQQGNVFSCSVMHEALHNHYTQKSLSLSPG
chain 2: EAVVTQEPSLTVSPGGTVTLTCRSSTGAVTTSNYANWVQEKPGQLPRGLIGGTNKRAPWVPARFSGSLLGGKAALTLSGAQPEDEAEYFCALWYSNLWVFGGGTKLTVLGQPKAAPSVTLFPPSSEELQANKATLVCLISDFYPGAVKVAWKADGSPVNTGVETTTPSKQSNNKYAASSYLSLTPEQWKSHRSYSCQVTHEGSTVEKTVAPAECSGGGGSEGKSSGSGSESKSTEGKSSGSGSESKSTGGGGSEVQLVESGGGLVQPGGSLKLSCAASGFTFNTYAMNWVRQAPGKGLEWVARIRSKYINYATYYADSVKDRFTISRDDSKNTAYLQMNNLKTEDTAVYYCVRHGNFGNSYVSWFAYWGQGTLVTVSAASTKGPSVFPLAPSSKSTSGGTAALGCLVKDYFPEPVTVSWNSGALTSGVHTFPAVLQSSGLYSLSSVVTVPSSSLGTQTYICNVNHKPSNTKVDKRVEPKSCDKTHTCPPCPAPEAAGGPSVFLFPPKPKDTLMISRTPEVTCVVVDVSHEDPEVKFNWYVDGVEVHNAKTKPREEQYNSTYRVVSVLTVLHQDWLNGKEYKCKVSNKALPAPIEKTISKAKGQPREPQVYTLPPSREEMTKNQVSLSCAVKGFYPSDIAVEWESNGQPENNYKTTPPVLDSDGSFFLVSKLTVDKSRWQQGNVFSCSVMHEALHNRFTQKSLSLSPG
notes: Heterodimer of one DLL3 chain and one CD3 chain (scFab-Fc, knob-in-hole)
For the molecule B1, binding in experiment [1] was put at a Kd of 7 nM. Also, the binding result in experiment [2] was “no binding (tested: 1.6 nM)”; in experiment [3] it was “no binding (tested: 1.6 nM)”; in experiment [4], “no binding (tested: 1.6 nM)”; in experiment [5], “no binding (tested: 1.6 nM)”; in experiment [6], “no binding (tested: 1.6 nM)”; in experiment [7], “binds”.
